Assay results: patent EP1364964A1, “Radiolabeled annexingalactose conjugates” (NEORX CORPORATION, priority 1994, dated 1995)

B1: 1.1: galactose-modified annexin V, substitution ratio 1.1:1 (offering ratio 75:1) (conjugate, UniProt P08758 2-320, looked up)
Annexin A5: AQVLRGTVTDFPGFDERADAETLRKAMKGLGTDEESILTLLTSRSNAQRQEISAAFKTLFGRDLLDDLKSELTGKFEKLIVALMKPSRLYDAYELKHALKGAGTNEKVLTEIIASRTPEELRAIKQVYEEEYGSSLEDDVVGDTSGYYQRMLVVLLQANRDPDAGIDEAQVEQDAQALFQAGELKWGTDEEKFITIFGTRSVSHLRKVFDKYMTISGFQIEETIDRETSGNLEQLLLAVVKSIRSIPAYLAETLYYAMKGAGTDDHTLIRVMVSRSEIDLFNIRKEFRKNFATSLYSMIKGDTSGDYKKALLLLCGEDD
modifications: galactose-modified

Tests used:
[1] = in vivo
Protocol: • A. Animal Preparation - LA Vascular Thrombi. Fasting 25-30 kg Yorkshire swine were sedated with intramuscular Telazol (5-10 mg/kg) (commercially available from AVECO Co.) and commercially available Atropine (1 mg, Elkins-Sinn, Inc., Cherry Hill, NJ). Surital (200 mg) (commercially available from Abbott Laboratories) anaesthesia was administered intravenously. The animals were intubated and given inhalation anaesthesia of 1.5-2% halothane (commercially available from Abbott Laboratories) and O2 sufficient to obtain a deep level of anesthesia and physiologic arterial blood gases. Continuous electrocardiographic monitoring was instituted using alligator clip electrodes. A cut down in the neck region was conducted, and an 8 french catheter (USCI Co, Billerica, MA) was placed in the right common carotid artery for blood pressure and arterial blood gas monitoring as well as for blood sampling. The swine were placed in a right lateral decubitus position, and a lateral thoracotomy was performed to expose the heart. The incision was held open by a thoracotomy retractor. The pericardium was opened, and the left atrial appendage was isolated from the left atrium by a vascular cross- clamp. Rubber tipped forceps were used to gently crush the appendage. Five minutes later, ricinoleate (1 mg, ICN Pharmaceuticals, Costa Mesa, CA) and thrombin (50 mg, Johnson and Johnson Co., Arlington, Texas) were injected into the LAA (left atrial appendage) using a 27 Ga needle. The cross-clamp was removed 10 minutes later. One hour after the crush injury, Tc-99m-annexin V, prepared in accordance with Example I above, was administered as an intravenous bolus dose in an ear vein. The intravenous line was then flushed with saline. In 7 animals, I-125 labeled ovalbumin was administered as a non-specific control preparable, for example, by the procedure described by Fraker et al., Biochem. Biophys. Res. Commun. 80: 849-57, 1978). Briefly, I-125-radiolabeled ovalbumin was prepared by the Iodogen method, employing 600 µg ovalbumin (Sigma Chemical Co., St. Louis, Missouri) and NaI-125 (2mCi, 0.92 nmol). Image acquisition was performed as described below. At the end of the experimental procedure (generally about 150 minutes), the animals were sacrificed by an intravenous bolus dose of 80 mEq of KCl while the animals were still under general anaesthetic. A final blood sample was taken for well counting. The heart was rapidly excised, washed free of blood and dissected into samples for well counting. Additional samples of carotid artery, lung, liver, spleen, muscle and kidney were obtained in some animals. • B. Controls. Five different types of controls were used: open chest sham; closed chest sham; ovalbumin; indium platelets; and non-specific Tc-99m-labeled antibody. • 1. Open Chest Sham. In three animals, the heart was exposed as above, but the left atrium was not isolated, crushed or injected with ricinoleate/thrombin. Marker images with a cobalt marker were performed as described below, and the Tc-99m-annexin V was injected 30-60 minutes after LAA exposure. Imaging and sample acquisition were identical to that described in A above. • 2. Closed Chest Sham. In seven animals, an ear intravenous line was established. No thoracotomy was performed. Sedation and anesthesia were identical to that described in A above. The Tc-99m-annexin V (+/other control radionuclides, such as I-125 ovalbumin or In-111-platelets) was administered and image acquisition was performed. • 3. Ovalbumin. I-125 ovalbumin was administered in 7 animals as a negative control protein. […] Indium Platelets. In-111 platelet labeling was performed in 7 animals as a positive well counting label. In-111 radiolabeled platelets were prepared in accordance with the procedure described by Stratton et al., Am. J. Cardiol. 47: 874, 1981 and Stratton et al., Circulation 69: 561, 1984. Imaging was not attempted because of the long serum half-life of the In-111-platelets. • 5. Non-specific Tc-Labeled Antibody. […]

[2] = test system: atrial thrombi and injured left atrium; set-up: species or system Yorkshire swine; settings: in vivo
Protocol: • A. Animal Preparation - LA Vascular Thrombi. […] Continuous electrocardiographic monitoring was instituted using alligator clip electrodes. […] The incision was held open by a thoracotomy retractor. […] The cross-clamp was removed 10 minutes later. […] The intravenous line was then flushed with saline. […] Res. Commun. 80: 849-57, 1978). […] Image acquisition was performed as described below. […] A final blood sample was taken for well counting. […] Open Chest Sham. […] Closed Chest Sham. In seven animals, an ear intravenous line was established. No thoracotomy was performed. […] Ovalbumin. […] Indium Platelets. […] J. Cardiol. […] Non-specific Tc-Labeled Antibody. […] Imaging. […] The cobalt marker was then removed. […] These were followed by a 10 minute tomographic acquisition. […] Each image was scored as positive, equivocal or negative. […] Each vial was counted for 1 minute.
For the injured tissues and thrombi, multiple specimens were usually taken from the same animal. In those cases, the maximum ratio for any one specimen is reported, as well as the average of all specimens taken. The maximum for each animal was averaged across all animals and is reported as the Maximum Anx-V Ratio.

[3] = test system: freshly isolated human platelets; test: competition assay: inhibition of binding of unmodified 125I radiolabeled annexin V to platelets
Protocol: The ability of galactose-modified annexin V to bind to activated platelets was assessed by determining its ability to inhibit the binding of unmodified, ^125I radiolabeled annexin V to freshly isolated human platelets, following the method of Thiagarajan and Tait J. Biol. Chem. 265: 17240-43, 1990.

Row | Molecule | %ID/g a [1] | %ID/g b [1] | ID/g cleared in the slower b phase [1] | a + b [1] | t1/2 a [1] | t1/2 b [1] | highest non-target localization [2] | Competition (% of control) ([3]; absolute value (left column), inhibition of 125I annexin V binding to human platelets) | Competition (% of control) ([3]; value normalized to 100% for unmodified annexin V (right column))
1 | Tc-99m-annexin V: annexin V radiolabeled with Tc-99m by a diamide dimercaptide N2S2 chelate (Example I) | 0.0389 %ID/g | 0.0300 %ID/g | 43% | 0.0689 | 9.6 min | 46 min | kidney | – | –
2 | B1 | – | – | – | – | – | – | – | 21.4 % of control | 28.7 % of control
